# According to US20240352075A1, “PACAP1-23 ANALOG GLYCOPEPTIDES AND METHODS FOR PRODUCING AND USING THE SAME” (priority 2021, published 2024):
# Primed or numbered codes have the meaning given here. Where no end group is shown, it is not given here. [ ]: non-standard residue; d: D form. Glc = glucose on Ser (glucosylated Ser); Glc″ = glucose, glycoside on Ser; Lac′ = lactose, glycoside on Ser; Nva = CCC[C@H](N)C(=O)O
# B1: CRA-DV-3024 (peptide)
# peptide: HSDGIFTDSYSRYRKQ[Nva]AVKKYLS(Glc)S(Glc)-NH2
# B2: CRA-TG-3026 (peptide)
# peptide: HSDAIFTDSYSRYRKQ[Nva]AVKKYLS(Lac′)-NH2
# B3: CRA-DV-3023 (peptide)
# peptide: HSDGIFTDSYSRYRKQ[Nva]AVKKYLS(Glc″)-NH2
# Legend:
# Experiment in all cases: cell-based or functional assay
# human VPAC2 [1] = biological target: T1, human VPAC2 (human, UniProt P41587 24-438)
# T1 sequence (looked up): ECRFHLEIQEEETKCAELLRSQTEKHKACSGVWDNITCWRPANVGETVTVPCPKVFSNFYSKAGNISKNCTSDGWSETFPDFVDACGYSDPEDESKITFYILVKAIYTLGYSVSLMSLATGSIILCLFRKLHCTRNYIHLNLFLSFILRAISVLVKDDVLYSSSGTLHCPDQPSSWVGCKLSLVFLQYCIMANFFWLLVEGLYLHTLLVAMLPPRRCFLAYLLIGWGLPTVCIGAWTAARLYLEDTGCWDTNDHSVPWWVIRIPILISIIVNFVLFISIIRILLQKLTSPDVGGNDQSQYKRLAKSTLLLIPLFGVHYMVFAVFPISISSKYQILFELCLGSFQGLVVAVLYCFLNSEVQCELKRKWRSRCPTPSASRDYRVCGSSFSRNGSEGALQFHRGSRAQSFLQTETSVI
# human VPAC1 [2] = biological target: T2, human VPAC1 (human, UniProt P32241 31-457)
# T2 sequence (looked up): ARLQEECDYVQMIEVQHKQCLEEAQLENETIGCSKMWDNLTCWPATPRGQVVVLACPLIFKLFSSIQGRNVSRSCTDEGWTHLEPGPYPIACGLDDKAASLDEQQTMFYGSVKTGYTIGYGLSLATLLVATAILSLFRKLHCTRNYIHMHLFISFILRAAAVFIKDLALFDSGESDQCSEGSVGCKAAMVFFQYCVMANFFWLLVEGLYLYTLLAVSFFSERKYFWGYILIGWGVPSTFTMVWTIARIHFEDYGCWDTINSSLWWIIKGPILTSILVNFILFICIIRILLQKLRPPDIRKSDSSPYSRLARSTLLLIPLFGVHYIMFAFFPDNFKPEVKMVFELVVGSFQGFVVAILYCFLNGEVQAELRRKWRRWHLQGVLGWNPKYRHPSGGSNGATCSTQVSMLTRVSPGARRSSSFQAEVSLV
# human VPAC2 [3] = biological target: T1, human VPAC2; remark: listed apart in the source
# human PAC1 = biological target: T3, human PAC1 (human, UniProt P41586 21-468)
# T3 sequence (looked up): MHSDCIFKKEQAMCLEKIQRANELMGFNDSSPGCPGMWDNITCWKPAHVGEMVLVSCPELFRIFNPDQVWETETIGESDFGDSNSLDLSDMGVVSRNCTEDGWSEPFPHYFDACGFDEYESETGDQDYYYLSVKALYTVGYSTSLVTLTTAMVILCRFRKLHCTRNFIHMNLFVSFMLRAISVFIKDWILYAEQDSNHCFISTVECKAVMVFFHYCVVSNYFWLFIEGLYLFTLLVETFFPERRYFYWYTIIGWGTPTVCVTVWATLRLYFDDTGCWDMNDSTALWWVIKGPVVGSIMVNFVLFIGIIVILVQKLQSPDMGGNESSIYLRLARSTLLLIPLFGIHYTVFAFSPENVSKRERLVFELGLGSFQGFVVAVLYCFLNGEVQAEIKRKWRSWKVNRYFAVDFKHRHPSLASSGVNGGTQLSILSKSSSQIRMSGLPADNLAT
# human VPAC1 [4] = biological target: T2, human VPAC1; remark: listed apart in the source
# human VPAC2 [5] = biological target: T1, human VPAC2; remark: listed apart in the source
# human VPAC1 [6] = biological target: T2, human VPAC1; remark: listed apart in the source
Binder,"cAMP stimulation Emax (Table 1, differs from Table 3) (human VPAC2 [1]) [%]","cAMP stimulation Emax (Table 1, differs from Table 3) (human VPAC1 [2]) [%]",cAMP stimulation EC50 (human VPAC2 [3]) [µM],cAMP stimulation Emax (human VPAC2 [3]) [%],cAMP stimulation EC50 (human PAC1) [µM],cAMP stimulation Emax (human PAC1) [%],cAMP stimulation EC50 (human VPAC1 [4]) [µM],cAMP stimulation Emax (human VPAC1 [4]) [%],"cAMP stimulation EC50 (Table 1, differs from Table 3) (human VPAC1 [2]) [µM]",selectivity for PAC1 versus VPAC2 (cAMP potency) (human VPAC2 [5]) [fold],selectivity for PAC1 versus VPAC1 (cAMP potency) (human VPAC1 [6]) [fold]
B1,128,147,7.37,130,0.0019,152,0.026,127,–,–,–
B2,190,124,0.321,115,0.007,181,0.038,95,0.035,–,–
B3,–,–,–,–,0.00064,–,0.037,–,–,~900,~60
